Test system: MS2 coat protein
Experiment: apparent KD of MS2 coat protein; designed switch direction (-1 OFF switch, 1 ON switch): -1; higher = weaker reporter binding
In short: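 Designed RNA switches with common flanks were transcribed on Illumina chips by stalled E. coli RNA polymerase and titrated with SNAP-549-labelled MS2 coat protein, from 0.7 or 1.5 nM doubling to 3 µM, in Tris-HCl pH 7.5 buffer with KCl, MgCl2, BSA, DTT, tRNA and Tween-20. Steps lasted 0.8–1.5 h (lowest) to 10–20 min (highest). Titrations ran without input, with 200 uM small-molecule ligand, or with an oligonucleotide input. Normalised cluster fluorescence was curve-fitted, and apparent KD is the per-design median over clusters.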

[1] = input ligand: microRNA oligo, concentration not stated
[2] = Eterna round: R95, input ligand: FMN 200 uM
[3] = Eterna round: R95, input ligand: microRNA oligo, concentration not stated
[4] = Eterna round: R95, input ligand: none

Sequence	apparent KD of MS2 coat protein (input ligand: FMN 200 uM) [µM]	apparent KD of MS2 coat protein [1] [µM]	apparent KD of MS2 coat protein (input ligand: none) [µM]	apparent KD of MS2 coat protein [2] [µM]	apparent KD of MS2 coat protein [3] [µM]	apparent KD of MS2 coat protein [4] [µM]
UUAAUUAGCAGACUAAUACCUCACAUGAGGAUCACCCAUGUGCAGGAUAUCAGCUCGUUUAGAGCUGAGAAGGGCACUGUCUGC [ExNG3/12-A2] (Eterna round: R96, puzzle: Exclusion NG 3)	0.0179	0.00872	0.0113			
AAAGAAGAGAGAAAAUAACACAUGAGGAUCACCCAUGUGAGAAGUUGAGGGUGAUACAGGCUUUUUGCUCGUCUUAU (puzzle: Sensor v3, turn-off variant 1)				0.233	0.263	0.332
CGGGUGAUAGGAUAUGACCAAGGUGACAUGAGGAUCACCCAUGUGAUCGUCGUAGACCUGUCAGAAGGGUUCCCGA [Bivevebe] (Eterna round: R97, puzzle: Exclusion 5)	0.0787		0.0349			
CCUGUGACGCAGGAUAUCGAGCACAAUGCAUGUUGAGAAGGGCGUACAUGAGGAUCACCCAUGUCUCACGUAGG [Eternabot (L1) Solution 53] (Eterna round: R97, puzzle: Exclusion 6)	0.175		0.316			
CUUGUGUAAGGAUAUAUGAGUCACGGAAAUAAACCGUGAAGAUAGAAGGUACAUGAGGAUCACCCAUGUAAAAC [Mod of Anonveat 5 - Jieux - Exclusion 4] (Eterna round: R97, puzzle: Exclusion 4)	0.224		0.0352			
GACUGCCGAGGAUAUACAUGAGGAUCACCCAUGUGCUUCAGUAUCGAAAGAUGCAUGGGUAGAAGGCGGUAGUC [LRO-Excl3-10] (Eterna round: R96, puzzle: Exclusion 3)	0.912	0.627	1.41			
CGUAGCAAUGUGAGGAUAUCUAGAGCUUCGGCUCUAGAGAAGGCACAUGAGGAUCACCCAUGUGAUUAGCUACG [BmEx4/9-B1] (Eterna round: R97, puzzle: Brourd's mod of Exclusion 4)	0.989		0.347			
AAGCAUUGCCAAAGGUAGUGCUUUACAUGAGGAUCACCCAUGUAGGAUAUGGUAGGCAAAGCUUACCAGAAGGACAUGAUAAUU [Mat - Exclusion NG 3 - Mod of JL - D13] (Eterna round: R96, puzzle: Exclusion NG 3)	0.151	0.0474	0.0479			
GAAAACGUAGGAUAUUAAUACUUAUACAUGAGGAUCACCCAUGUUUGGUGGGUAAAAGAAUGAGAAGGGCGAUGAA [EX5 #9] (Eterna round: R97, puzzle: Exclusion 5)	0.392		0.425			
CCCGGGUUUGUGAGGAUAUCGGGCCCGAAAGGGCCCGAGAAGGCACAUGAGGAUCACCCAUGUAAGGGCCCGGG [-42.9, -40.9 kcal, A 23%, 0-5cbis] (Eterna round: R97, puzzle: Brourd's mod of Exclusion 4)	0.0293		0.0261			
GAGGAACAUGAGGAUCACCCAUGUAAGGAUAUGCAAAGCGAGGUAGUAGAAGGAGAAGGCAGAAGGUACACGGA [JR_Exclu1_Sub075] (puzzle: Exclusion 1)				0.0319	0.0296	0.0453
CACAAGCUUUUUUGAUGCAUUUUAGUUGGUUUCCUUUUUACAUGAGGAUCACCCAUGUUUAUGAAGCUCGAUCUUUU [JR_SV3TOV2_Sub079] (puzzle: Sensor v3, turn-off variant 2)				0.0543	0.0492	0.0601
AAGAAACAUGAGGAUCACCCAUGUGAGGAUAUGAAAAAGAAAAGAAAAGAAAGAAGGUUCAGAAGGCACAAAGG [salish99-ex1_r3_027] (Eterna round: R96, puzzle: Exclusion 1)		0.0254				
GAUUAUGCGAGCUUUAGGGACAUGAGGAUCACCCAUGUUCGUCUUAUUAGUCUGGGUACACUAACAUACCUAAAUCU [JMF 21] (puzzle: Sensor v3, turn-off variant 1)				0.0269	0.0436	0.0304
GCAUCCAAAGUGAGGAUAUACCUCUGGAUACAGAGGUAGAAGGCACAUGAGGAUCACCCAUGUUACUAGGAUGC [Fiskers BMX 4 - 35] (puzzle: Brourd's mod of Exclusion 4)					0.0132	
ACAUGAGGAUCACCCAUGUCAGGUUGGUUUUCUCCGGCUGUUGAGGAUAUAGUCCGGUAUCCGCGCUAGAAGGUGAGGGUUGGC [Aenatbe mod 13] (Eterna round: R96, puzzle: Exclusion NG 3)	0.0645	0.0544	0.0787			
AUAAAUCAUGUAGGAUAUGUGUGGCGAAGCUAUACAGAAGGACAUGAGGAUCACCCAUGUUCUUCCGUCUGCGUACAGACGGAA [11th something] (Eterna round: R96, puzzle: Exclusion NG 1)	0.228	0.0191	0.029			

Sequence	apparent KD of MS2 coat protein (input ligand: FMN 200 uM) [µM]	apparent KD of MS2 coat protein [1] [µM]	apparent KD of MS2 coat protein (input ligand: none) [µM]	apparent KD of MS2 coat protein [2] [µM]	apparent KD of MS2 coat protein [3] [µM]	apparent KD of MS2 coat protein [4] [µM]
UAUAUAUAGUAAGGAUAUGUAUAUAUUCUAUAAACAGAAGGUACUGACAUGAGGAUCACCCAUGUUUUAGUGUGGGCAUGUAGA [JMF's solution 62] (Eterna round: R96, puzzle: Exclusion NG 1)		0.0274				
ACCCUGUGAGGAUAUUGUGAGCAGACACUUGAGUGCAAUCAUAAGAAGGUACAUGAGGAUCACCCAUGUGAAAC [Eternabot (L1) Solution 90] (Eterna round: R97, puzzle: Exclusion 4)	0.0304		0.0387			
CCCAGUUAGGAAGGAUAUUGUACAUGAGGAUCACCCAUGUAAUAAAUGAGGAUCACGGAUGUAUACAAGAAGGUCCGGAUAGGC [Ostracism 9 - Jieux - Exclusion NG 2] (Eterna round: R96, puzzle: Exclusion NG 2)		0.0593				
CGGAUGUGAGGAUAUACAUGAGGAUCACCCAUGUGUGCCAGCUAGAUGACUGGCACUUGUAGAAGGCACGUCUG [Mat - Exclusion 3 - Mod of JL D91] (puzzle: Exclusion 3)					0.0113	
ACUAGAUGAGGAUAUGCAUAUUUUCGUGUUCUUCUAGAUUAACAUGAGGAUCACCCAUGUAGAAGGCGUCAUUU [Exclusion 2 - 16] (puzzle: Exclusion 2)					0.0157	
CCGGAAAGGAAGGAUAUGCUAGACGAUAGUCUAGCAGAAGGUCCUACAUGAGGAUCACCCAUGUGGUCCUCCGG [Mat - Exclusion 6 - Eli Mod - D33] (Eterna round: R97, puzzle: Exclusion 6)	0.274		1.21			
GCGCCAUCGUGAGAUGGCGUAACUACAUGAGGAUCACCCAUGUAGGAUAUCGAUUGCUUUGCAGUCGAGAAGGGCAUGGUUUGU [JL ENG3 3.86] (Eterna round: R96, puzzle: Exclusion NG 3)	0.0561	0.0202	0.0228			
CUGAGGUAGCGGUCCUAUGACAUGAGGAUCACCCAUGUACCUUGCUACGAGCUUUUUGCUCGUCUUAUAAUUCUCGG [JL Atriat mod 3] (puzzle: Sensor v3, turn-off variant 1)				0.466	0.0915	0.526
GGGAUGUGAGGAUAUCGAGGUGGAAAGCACCUAACAGAAAACGAGAAGGCACAUGAGGAUCACCCAUGUAAUAC [Ditete] (puzzle: Exclusion 4)				0.0546	0.0195	0.0198
UAAAACGUAGGAUAUGCGGAAAAUAACUUGAGGAUCACCCAAGUGUCCGAGAGGCUAAAUGCAGAAGGACGAGAUC [Edxedi] (Eterna round: R97, puzzle: Exclusion 5)	0.179		0.105			
UAUUAACAUGUAGGAUAUCUGCACGUUUAGUGCAGAGAAGGACAUGAGGAUCACCCAUGUAGAUCAUAAUAAUUUAAUUUAAUU [ENG1/6-D2] (Eterna round: R96, puzzle: Exclusion NG 1)	0.541	0.141	0.117			
AAUUAUUGAUGAGGAUAUUGUGGUGAAACACGACAAGAAGGCAUUUUUCACAUGAGGAUCACCCAUGUGAGCCUUGUGCAUAUA [Ex NG1 #62] (Eterna round: R96, puzzle: Exclusion NG 1)	0.0173	0.0115	0.0152			
AGUACUAACACGAAAGUGUUAGUACAAUAAGCUUGUGGAACAUGAGGAUCACCCAUGUCCUCAUAAGCUCGUCUUAU [JL-sv3-2.12 mat747 mod] (puzzle: Sensor v3, turn-off variant 2)				0.0168	0.0714	0.0169
ACAUGUAAUGUAGGAUAUUUUACACAUGAGGAUCACCCAUGUGACCGGAGGCUUUACUAUGAGUAAGAGAAGGGUAUGUACAUG [Ex NG2 #62] (Eterna round: R96, puzzle: Exclusion NG 2)	0.0905	0.0566	0.0867			
AUAAGUGAUAAGGAUAUUACUAGCCUCGGCUAGUGAGAAGGUAUCACAUGAGGAUCACCCAUGUGUUCCAAUAA [Ex6/7-B2] (Eterna round: R97, puzzle: Exclusion 6)	0.297		0.119			
AGCGAAAAGACAGGAUAUGAGAAUAGAUAGAGCUCAGAAGGGUCACAUGAGGAUCACCCAUGUAAAGUCUUGAGGCUGCGUGGU [Prohibition 11 - Jieux - Exclusion NG 1] (Eterna round: R96, puzzle: Exclusion NG 1)	0.184	0.0434	0.0556			
UCGCUGCGAGGAUAUACAUGAGGAUCACCCAUGUACGGGUCCGGGUCUUCGUCUAUUGGUAGAAGGCGCAGUGA [JL Laongeedie mod 8] (puzzle: Exclusion 3)					0.0436	
